The values below come from paper PMC2635920 (Nature structural & molecular biology, 2009).

T1: Tip20p, full-length (residues 1-701) (S. cerevisiae, UniProt P33891 1-701)
T1 sequence (looked up): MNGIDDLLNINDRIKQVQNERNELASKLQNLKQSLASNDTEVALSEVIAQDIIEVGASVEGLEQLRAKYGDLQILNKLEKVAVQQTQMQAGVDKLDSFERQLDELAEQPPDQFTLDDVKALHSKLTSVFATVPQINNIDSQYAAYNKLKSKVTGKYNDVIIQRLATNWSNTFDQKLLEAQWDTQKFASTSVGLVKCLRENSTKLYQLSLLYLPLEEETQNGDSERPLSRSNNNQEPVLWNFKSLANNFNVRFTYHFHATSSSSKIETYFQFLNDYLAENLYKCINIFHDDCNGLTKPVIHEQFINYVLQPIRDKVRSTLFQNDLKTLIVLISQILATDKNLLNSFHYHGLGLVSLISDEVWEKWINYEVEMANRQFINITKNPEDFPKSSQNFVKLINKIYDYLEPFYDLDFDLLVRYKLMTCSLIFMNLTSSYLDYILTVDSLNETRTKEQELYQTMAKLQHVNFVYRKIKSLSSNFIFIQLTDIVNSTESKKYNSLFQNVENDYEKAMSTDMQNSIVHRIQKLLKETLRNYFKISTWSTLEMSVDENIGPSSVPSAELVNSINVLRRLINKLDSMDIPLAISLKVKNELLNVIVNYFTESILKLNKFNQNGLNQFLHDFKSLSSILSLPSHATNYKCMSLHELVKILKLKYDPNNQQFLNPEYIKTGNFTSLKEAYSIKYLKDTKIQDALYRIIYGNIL

T2: Tip20ΔN (Tip20p residues 82-701) (S. cerevisiae, UniProt P33891 82-701)
T2 sequence (looked up): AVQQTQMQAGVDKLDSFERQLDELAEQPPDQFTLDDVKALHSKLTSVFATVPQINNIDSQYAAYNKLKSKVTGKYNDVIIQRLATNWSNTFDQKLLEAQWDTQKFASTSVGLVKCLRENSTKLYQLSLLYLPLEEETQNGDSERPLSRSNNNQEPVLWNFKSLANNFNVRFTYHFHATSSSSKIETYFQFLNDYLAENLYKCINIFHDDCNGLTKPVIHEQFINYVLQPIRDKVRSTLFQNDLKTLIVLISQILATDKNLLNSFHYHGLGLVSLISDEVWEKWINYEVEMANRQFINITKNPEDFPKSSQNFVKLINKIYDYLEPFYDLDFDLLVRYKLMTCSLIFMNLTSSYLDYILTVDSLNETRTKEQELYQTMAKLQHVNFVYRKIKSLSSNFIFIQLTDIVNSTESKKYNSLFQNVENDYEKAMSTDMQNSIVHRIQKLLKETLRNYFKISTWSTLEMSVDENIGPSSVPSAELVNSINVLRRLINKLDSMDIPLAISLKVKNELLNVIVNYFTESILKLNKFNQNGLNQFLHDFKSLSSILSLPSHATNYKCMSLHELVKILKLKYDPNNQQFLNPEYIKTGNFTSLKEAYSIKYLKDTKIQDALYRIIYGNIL

B1: Dsl1ΔC (Dsl1p residues 1-361) (domain or fragment, S. cerevisiae, UniProt P53847 1-361, looked up)
chain: MESLFPNKGEIIRELLKDPLILKNDSKRSNGSELELDSSDLLQREAILANELNILDNLKTFLNLIKEVKTNLNILELENCYYSLQSLRKKMRNNAAYLKQSFNFQQSISTYVDTLHLELVSTLYKILTNGFWKITENSIQFTPTVEWGKDKVHIEYDTFMDFVAQQYFPKGSLDNQAWFILDMTSADSQEQVRAKLNTIMKEYMNLSRIVSMIKNSIFISGKEISYENEKNILVFSKSSSHGQHCVSTVLTSFEAVCDFMLDGLAFRDRKTLSYELGPLFNTEFTKFVKNNASIILESLDSPLKNLVSVINNKLTRLVAKSEVTNWTHSGKEIQDLLMNKQLYYNLLLDKVLESHISEIRS
B2: Sec20ΔC (cytoplasmic domain of Sec20p, residues 1-275) (domain or fragment, S. cerevisiae, UniProt P28791 1-275, looked up)
chain: MVVTFLQDLEVLQDALLNNLQKLSAISRRKESGESKHDNKDSFAAIANEHNDEEEEIEFEDLVNIIESKVSDFESVLKCSIVEMTYKYPELKLQWEKSPRYDQCDKLHIVKLDKQMNEDIYAQLVEELDFVLQFVDWFYCYRLKVKEILRQHHKRDLAWNDEKRDRAIKFHAVDYDKLHQGTSSSSSLTSTSMEKASTREKLLSKTKQLTNNLVRGNQILQSGILQSDLNLDELRAQTNSLTQIDDKYTQFETVFKKTADLVKVLENASHQEKRD

In assay [1] the target is T1, Tip20p, full-length (residues 1-701). Briefly: AUC.
The target of assay [2] is B1. Briefly: pull-down.
Assay [3] addresses T1, Tip20p, full-length (residues 1-701). Briefly: SEC.
Assay [4] has as its target T2, Tip20ΔN (Tip20p residues 82-701). Briefly: SEC. (In general: Size exclusion chromatography separates by hydrodynamic size, large species first.)
Assay [5] deals with intact Dsl1p complex (Tip20p-Dsl1p-Sec39p) (S. cerevisiae, UniProt P33891 1-701; P53847 1-754; Q12745 1-709). In words: SEC.
Sequence of intact Dsl1p complex (Tip20p-Dsl1p-Sec39p) (Q12745 whole entry, one chain of several): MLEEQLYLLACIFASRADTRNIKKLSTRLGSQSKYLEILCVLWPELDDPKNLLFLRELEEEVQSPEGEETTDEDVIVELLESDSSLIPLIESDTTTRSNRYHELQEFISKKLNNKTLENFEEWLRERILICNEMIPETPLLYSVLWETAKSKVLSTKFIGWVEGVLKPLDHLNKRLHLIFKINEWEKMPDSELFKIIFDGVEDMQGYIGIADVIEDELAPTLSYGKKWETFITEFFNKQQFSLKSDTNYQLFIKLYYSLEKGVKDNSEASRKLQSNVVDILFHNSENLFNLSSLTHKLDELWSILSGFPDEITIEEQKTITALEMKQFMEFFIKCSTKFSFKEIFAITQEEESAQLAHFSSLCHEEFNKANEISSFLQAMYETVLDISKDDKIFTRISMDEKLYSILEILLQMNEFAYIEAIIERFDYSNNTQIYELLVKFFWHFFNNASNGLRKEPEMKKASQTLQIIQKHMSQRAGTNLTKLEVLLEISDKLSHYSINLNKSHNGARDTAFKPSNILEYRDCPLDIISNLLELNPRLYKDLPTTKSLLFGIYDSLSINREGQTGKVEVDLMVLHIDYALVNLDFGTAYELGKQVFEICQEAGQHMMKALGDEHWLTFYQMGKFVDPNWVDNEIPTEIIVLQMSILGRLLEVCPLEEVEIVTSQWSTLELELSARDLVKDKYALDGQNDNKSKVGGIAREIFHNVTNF

As for B1, in assay [1], the stoichiometry N (usually a count of units in the complex or per binding partner) was 1.
With MNGIDDLLNINDRIKQVQNERNELASKLQNLKQSLASNDTEVA (domain or fragment, S. cerevisiae, UniProt P33891 1-43, looked up) [GST-Tip20p (residues 1-43)], the binding result in assay [2] is reported as “binds”.
With B2, the binding result in assay [3], in assay [4] and in assay [5] was “binds” each time.
